Data on three molecules can be found in patent publication US20210206842A1 (NATIONAL RESEARCH COUNCIL OF CANADA, published 2021).

For assay [1], the target named is T1, VHH FC5.
T1 construct: put together from its FR and CDR entries; also called FC5-VHH; FC5 control
The assay can be described thus: ELISA, hybridoma supernatant on coated purified FC5-VHH. The method, then:
(§1) Screening. Hybridoma supernatants were screened by ELISA to detect specific binders. To this end, 96-well half-area plates (Costar #3690) were coated with 25 μl of FC5DIE3IR or FC5-VHH or FC5-hFc-1X0 at 5 μg/ml in PBS and incubated overnight at 4° C. Microplates were washed 3 times with PBS, blocked with PBS-BSA 1%, and 25 μl of hybridoma supernatants were added and incubated at 37° C., 5% CO₂ for 2 hours. […] After 4 washes with PBS-Tween 20 0.05%, 25 μl of a 1 mg/ml pNPP substrate solution was added and further incubated for one hour at 37° C.
On the technique in general: ELISA stands for enzyme-linked immunosorbent assay.

The target of assay [2] is T2, human Nav1.7 polypeptide (human, UniProt Q15858 1-1988).
T2 construct: also called hNav1.7; SCN9A
The assay can be described thus: cell ELISA, hybridoma supernatant on live CHO cells expressing human Nav1.7, duplicate 1. The method, then:
(§2) Cell-ELISA. Sterile 96-well plates (Costar #3595) were pre-treated with 50 μl/well of branched polyethyleneimine (PEI, Sigma Cat #408727) at 25 μg/ml in PBS for 30 min at room temperature. PEI was removed and CHO-3E7 or hNAᵥ1.7-CHO (ChanTest cat #CT4003) were seeded at 6×10⁵ cells per well in FreeStyle F17 Expression Medium (Gibco Cat #A1383501) and incubated overnight at 37° C., 5% CO₂. Microplates were blocked with Starting block (Thermofisher Cat #37538) for 30 min at room temperature, and 50 μl of hybridoma supernatants were added and incubated at 4° C. for 3 h. […] After 10 washes with PBS, 50 μl of TMB substrate solution (Pierce Cat #34021) was added and further incubated for 60 min at room temperature.

The target of assay [3] is T2, human Nav1.7 polypeptide. The assay can be described thus: cell ELISA, hybridoma supernatant on live CHO cells expressing human Nav1.7, duplicate 2. Here is the method:
as §2

Assay [4] addresses T3, FC5DIE3IR recombinant protein.
T3 construct: Made in CHO-3E7 cells; also called FC5DIE31R; FC5DIE3R
The assay can be described thus: ELISA, hybridoma supernatant on coated purified FC5DIE3IR. Here is the method:
as §1

For assay [5] the target is unchanged. Description: ELISA on coated FC5DIE3IR, serial dilutions of purified mAb, OD 405 nm; fit One site - Specific binding with Hill slope; apparent Kd in the unit of the concentration axis (nM), the table itself prints no unit. The method, then:
as §1
(§3) Evaluation of apparent affinity in ELISA. Purified antibodies were assessed for their binding activity by ELISA in a dose-dependent binding curve. Serial 1/3 dilutions of purified mAbs starting at 120 nM were applied onto wells and ELISA was performed as described above (screening section). The data were analyzed with GraphPad Prism software using one-site specific binding-with Hill slope non-linear regression curve fit model to determine Bₘₐₓ (maximum specific binding) and Kdₐₚₚ (concentration needed to achieve a half-maximum binding at equilibrium) for each mAb tested.

For assay [6] the target is unchanged. The assay can be described thus: ELISA on coated FC5DIE3IR, serial dilutions of purified mAb; fit One site - Specific binding with Hill slope. The method, then:
as §1, §3

Assay [7] deals with T1, VHH FC5. Description: SPR, mAb 1G5 and FC5, 25 C. In general terms: Surface plasmon resonance follows binding to a sensor surface in real time, without labels.
For assay [8], the target named is T2, human Nav1.7 polypeptide. The assay can be described thus: cell-based or functional assay.
Assay [9] addresses T3, FC5DIE3IR recombinant protein. The assay can be described thus: apparent KD (Kdapp), ELISA dose curve of purified mAb on coated FC5DIE3IR; 1G5 clone (IgG1), ELISA apparent KD. The method, then: as §1, §3
Assay [10] has the same target. The assay can be described thus: SPR, mAb 1G5 and FC5DIE3IR, 25 C.
The target is the same in assay [11]. The assay can be described thus: ELISA dose curve of purified mAb on coated FC5DIE3IR. The method, then: as §1, §3
The target is the same in assay [12]. The assay can be described thus: apparent KD (Kdapp), ELISA dose curve of purified mAb on coated FC5DIE3IR; 3A8 clone (IgG2a), ELISA apparent KD. Here is the method: as §1, §3
In assay [13] the target is T4, peptide #3 (30 aa) (human).
T4 construct: Custom-synthesized (Biomatik); also called pep #3; P3
T4 sequence (peptide, as listed by the source): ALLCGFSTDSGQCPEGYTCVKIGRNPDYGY
The assay can be described thus: ELISA on coated peptide or FC5DIE3IR, mAb detected with HRP anti-mouse Fc, Abs 450nm. The method, then:
(§4) The peptides were custom-synthesized (Biomatik) and tested for antibody binding by ELISA. […] The wells were blocked with 1% BSA in TBS-T for 30 min and then incubated with 1:1000 dilution of anti-hNaᵥ1.7 mAb at room temperature (RT) for one hr.

The target of assay [14] is T5, peptide #40a (40 aa) (human).
T5 construct: Custom-synthesized (Biomatik); also called pep #40a; P40a
T5 peptide: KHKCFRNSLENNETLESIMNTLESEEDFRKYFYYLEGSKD
Described as above. Here is the method: as §4

Assay [15] deals with T6, peptide #2 (30 aa) (human).
T6 construct: Custom-synthesized (Biomatik); also called pep #2; P2
T6 peptide: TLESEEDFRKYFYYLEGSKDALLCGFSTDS
Described as above. Here is the method:
as §4

Assay [16] deals with T3, FC5DIE3IR recombinant protein. Description: SPR (Biacore T200), single cycle kinetics, Fc-captured mAb, FC5DIE3IR flowed (320 nM-20 nM), 1:1 model, 25 C. The method, then: (§5) HBS-EP running buffer used for SPR experiments. […] Test binding experiments of FC5 control and FC5DIE3IR involved flowing 1 μM concentrations of SEC-pure material over the mAb surface at a flow rate of 30 μl/min for 5 min. Surfaces could be regenerated using 10 mM glycine, pH 1.7, with a 120 sec pulse at 20 μl/min. All SPR experiments were evaluated with Biacore T200 Software v 3.0. […] Regeneration conditions were the same as above. Data were fit to a 1:1 binding model and analyzed using the Biacore T200 Software v3.0.

Assay [17] addresses T2, human Nav1.7 polypeptide. The assay can be described thus: cell-based or functional assay. This is another data set of the same source.
Assay [18] deals with T1, VHH FC5. The assay can be described thus: SPR (Biacore T200), ligand 3A8 captured by anti-mouse IgG, VHH FC5 flowed at 1 µM, 25 °C, 1:1 binding model; the fit is printed under a flat sensorgram and the filing says that 3A8 did not bind FC5. The method, then: as §5
In assay [19] the target is T1, VHH FC5. Description: SPR (Biacore T200), ligand 3A8 captured by anti-mouse IgG, VHH FC5 flowed at 1 µM, 25 °C, 1:1 binding model; the label reads KD: without a unit, M follows from kd/ka; the fit is printed under a flat sensorgram and the filing says that 3A8 did not bind FC5. The method, then: as §5
Assay [20] deals with T3, FC5DIE3IR recombinant protein. Description: SPR (Biacore T200), ligand 3A8 captured by anti-mouse IgG, FC5DIE3IR flowed at 1 µM, 25 °C, 1:1 binding model. The method, then: as §5
For assay [21] the target is unchanged. The assay can be described thus: SPR single cycle kinetics, ligand 3A8 Fc-captured, FC5DIE3IR flowed in five rising concentrations, 1:1 binding model. The method, then: as §5
In assay [22] the target is T7, peptide #2a (20 aa) (human).
T7 construct: Custom-synthesized (Biomatik); also called pep #2a; P2a
T7 peptide: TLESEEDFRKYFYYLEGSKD
Description: ELISA on coated P2a, mAb at the dilutions 1:1000, 1:5000 and 1:10000, Abs 450nm. The method, then:
as §4

The target in assay [23] is T8, peptide #2b (20 aa) (human).
T8 construct: Custom-synthesized (Biomatik); also called pep #2b; P2b
T8 peptide: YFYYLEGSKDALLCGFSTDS
Description: ELISA on coated P2b, mAb at the dilutions 1:1000, 1:5000 and 1:10000, Abs 450nm. Here is the method: as §4

Assay [24] concerns the target T9, peptide #40b (40 aa) (human).
T9 construct: Custom-synthesized (Biomatik); also called pep #40b; P40b
Description: ELISA on coated peptide or FC5DIE3IR, mAb detected with HRP anti-mouse Fc, Abs 450nm. Here is the method: as §4

The target in assay [25] is T1, VHH FC5. The assay can be described thus: SPR, single cycle kinetics, Fc-captured mAb, FC5 flowed, 25 C. Here is the method:
as §5

T1 sequence (VHH, as listed by the source): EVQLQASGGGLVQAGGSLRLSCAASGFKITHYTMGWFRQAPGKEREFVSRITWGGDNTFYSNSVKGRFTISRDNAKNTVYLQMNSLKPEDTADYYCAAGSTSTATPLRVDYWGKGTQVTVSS

B1: mAb 1G5 (antibody, V domains shown)
VH: QVQLQQPGAELVKPGASVKLSCKASGYTFTSYWINWVKQRPGQGLEWIGNIYPGNSNTNYNEKFKSKATLTVDKSSSTAYMQLSSLTSEDSAVYYCARRYYYDYDDAMDYWGQGTSVTVSS
VL: DIVLTQSPASLAVSLGQRATISCRASESVDSYGNGFMHWYQQKPGQPPKLLIYRASNLESGIPARVSGSGSRTDFTLTINPVEADDVATYYCQQSNEDPWTFGGGTKLEIK
notes: also called negative control
With B1, the entries for the “ELISA signal (OD 405 nm)” value in [1] and in [4] were 0.096 OD 405 nm and 1.14 OD 405 nm, respectively. For the same molecule, the “cell ELISA signal (OD 450 nm)” value in [2] stood at 0.172 OD 450 nm; in [3], 0.225 OD 450 nm. Also, the Kd in assay [5] came out at 5.04 nM; in assay [7], 58.8 nM; in assay [9] it was 4.8 nM; in assay [10] it was 186 nM. Besides, in assay [6], the Bmax is 0.635 OD405 nm. Moreover, the koff (commonly the rate constant with which the complex falls apart) in assay [7] amounted to 0.017 s⁻¹; in [10] it was 0.0136 s⁻¹. Further, the kon (commonly a measure of how fast the partners come together) in [7] stood at 289000 M⁻¹ s⁻¹; in assay [10] it was 72900 M⁻¹ s⁻¹. Further, in assay [8], the “Reduction currents (%) at 1 µM” value worked out at 0.77%.

B2: anti-hNav1.7 mAb 3A8 (antibody, V domains shown)
VH: QVQLQQPGAELVKPGASVKLSCKASGYTFTNYWMHWVKQRPGQGLEWIGEINPSNGRANYNEKFKSKATLTVDKSSSTAYMQLSSLTSEDSAVYYCARSPYGYYDYWGQGTTLTVSS
VL: DVLMTQTPLSLPVSLGDQASISCRSSQSLLHSNGNTYFHWYLQKPGQSPKLLIYKVSNRFFGVPDRFSGSGSGTDFTLKISRVEAEDLGVYFCSQITHVPLTFGAGTKLELK
notes: also called F233-3A8
With B2, the “ELISA signal (OD 405 nm)” value in assay [1] worked out at 0.029 OD 405 nm; in assay [4], 0.995 OD 405 nm. Besides, the “fold lower apparent KD than the 1G5 clone” value in [11] is approximately 2.5 fold. In addition, the Kd was 1.9 nM in [12]; 36.7 nM in assay [16]; 482 nM in assay [19]; 1.84 nM in assay [5]; 17.1 nM in assay [20]; 7.59 nM in assay [21]. The “cell ELISA signal (OD 450 nm)” value in [2] turned out to be 0.102 OD 450 nm; in assay [3], 0.183 OD 450 nm. Also, the binding result in assay [13] is “no binding”; in assay [14] it was “binds”; in assay [15], “binds”; in [22], “binds”. The koff in assay [16] is 0.000259 s⁻¹; in [18], 0.0138 s⁻¹; in [20] it was 4.52e-05 s⁻¹; in assay [21], 3.15e-05 s⁻¹. Moreover, the kon in assay [16] was 7050 M⁻¹ s⁻¹; in assay [18], 28700 M⁻¹ s⁻¹; in assay [20], 2640 M⁻¹ s⁻¹; in assay [21], 4160 M⁻¹ s⁻¹. Moreover, the “concentration response relationship (IC50), hNav1.7 currents, whole-cell patch clamp, hNav1.7-HEK293 cells” value in assay [17] came out at 900 nM. Also, in [6], the Bmax was determined as 2.15 OD405 nm. The “Concentration response relationship (IC50), hNav1.7 currents, whole-cell patch clamp, hNav1.7-HEK293 cells, resting/closed state” value in [8] turned out to be 850 nM. The “Efficacy (degree of maximum inhibition) %” value in [8] came to 16%. In addition, the “Reduction currents (%) at 0.5 µM” value in [8] stood at 3.6%. For the same molecule, the “Reduction currents (%) at 1 µM” value in assay [8] was 8.2%. Further, in assay [8], the “Reduction currents (%) at 2 µM” value is 16%. The “Reduction currents (%) at 3 µM” value in [8] was determined as 15.4%. Besides, the “Time constant of the block of the hNav1.7 currents (1 µM)” value in assay [8] was found to be 184 s. The “Time constant of the block of the hNav1.7 currents (2 µM)” value in assay [8] amounted to 105 s.

B3: anti-hNav1.7 mAb 2G11 (antibody, V domains shown)
VH: QVQLQQPGAELVKPGASVKLSCKASGYTFTTYWMHWVKQRPGQGLEWIGEINPSNGRANYNEKFKSKATLTVDKSSSTAYMQLSSLTSEDSAVYYCLRSLGYFDYWGQGTTLTVSS
VL: DVVMTQSPLSLPVSLGDQASISCRSSQSLVHSNGNTYLHWYLQKAGQSPKFLIYKVSNRFSGVPDRFSGSGSGTDFTLKISRVEAEDLGVYFCSQSTHVPYTFGGGTKLEIK
As for B3, the “ELISA signal (OD 405 nm)” value was 0.021 OD 405 nm in assay [1] and 0.86 OD 405 nm in [4]. The “cell ELISA signal (OD 450 nm)” value in assay [2] came to 0.041 OD 450 nm; in [3], 0.049 OD 450 nm. The binding result in assay [23] was “no binding (tested: 1:1000 dilution)”; in [24] it was “no binding”; in assay [14], “binds”; in assay [22], “no binding (tested: 1:1000 dilution)”; in assay [25], “no binding”. Also, the Kd in [16] came to 55.1 nM; in [5], 0.847 nM. Further, the koff in assay [16] was 0.000526 s⁻¹. Further, the kon in [16] stood at 9560 M⁻¹ s⁻¹. Moreover, the Bmax in assay [6] is 1.84 OD405 nm.
